From the supplement of paper PMC5998384

Legend:
HeLa Kyoto [1] = experiment: solubility in G1/S (NP-40 vs SDS abundance) (log2 ratio); higher = more soluble; conditions: cell cycle stage: G1/S
HeLa Kyoto [2] = experiment: melting temperature (median over replicates), in situ; higher = more thermally stable
HeLa Kyoto [3] = experiment: solubility change mitosis vs G1/S (difference of NP-40 vs SDS log2 ratios) (log2 ratio difference); higher = more soluble in mitosis
HeLa Kyoto [4] = experiment: thermal stability score vs G1/S (z-score of summed log2 fold changes over temperatures); higher = more thermally stable than in G1/S
[5] = cell cycle stage: early G1 (4.5 h after nocodazole release)
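Throughout, for melting temperature (median over replicates), in situ: HeLa Kyoto cells synchronized by double thymidine or nocodazole block, proteins quantified by TMT10plex mass spectrometry, three independent biological replicates.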
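Throughout, for solubility change mitosis vs G1/S (difference of NP-40 vs SDS log2 ratios): synchronized HeLa Kyoto cells (double thymidine block for G1/S, nocodazole release for mitosis), protein amounts in NP-40 versus SDS lysates quantified by mass spectrometry, three biological replicates.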
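Throughout, for solubility in G1/S (NP-40 vs SDS abundance): HeLa Kyoto cells arrested at G1/S by double thymidine block, proteins quantified by TMT10plex mass spectrometry in mild NP-40 versus SDS extracts, three biological replicates.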
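Throughout, for thermal stability score vs G1/S (z-score of summed log2 fold changes over temperatures): synchronized HeLa Kyoto cells, proteins quantified by TMT10plex mass spectrometry, three biological replicates, mitosis taken 0.5 h after nocodazole release, G1/S directly after double thymidine block.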

| Sequence | solubility in G1/S (log2) (HeLa Kyoto [1]) | melting temperature (HeLa Kyoto [2]; cell cycle stage: G1/S) | melting temperature (HeLa Kyoto [2]; cell cycle stage: mitosis) | solubility change mitosis (log2) (HeLa Kyoto [3]) | thermal stability score (HeLa Kyoto [4]; [5]) | thermal stability score (HeLa Kyoto [4]; cell cycle stage: mitosis) |
| --- | --- | --- | --- | --- | --- | --- |
| MSGTSSHESFYDSLSDMQEESKNTDFFPGLSAFLSQEEINKSLDLARRAIADSETEDFDSEKEISQIFSTSPASLCEHPSHKETKLGEHASRRPQDNRSTPVQPLAEKQTKSISSPVSKRKPAMSPLLTRPSYIRSLRKAEKRGAKTPSTNVKPKTPHQRKGGPQSQLCDKAANLIEELTSIFKAAKPRNRSPNGESSSPDSGYLSPKNQPSALLSASASQSPMEDQGEMEREVKSPGARHCYQDNQDLAVPHNRKSHPQPHSALHFPAAPRFIQKLRSQEVAEGSRVYLECRVTGNPTPRVRWFCEGKELHNTPDIQIHCEGGDLHTLIIAEAFEDDTGRYTCLATNPSGSDTTSAEVFIEGASSTDSDSESLAFKSRAGAMPQAQKKTTSVSLTIGSSSPKTGVTTAVIQPLSVPVQQVHSPTSYLCRPDGTTTAYFPPVFTKELQNTAVAEGQVVVLECRVRGAPPLQVQWFRQGSEIQDSPDFRILQKKPRSTAEPEEICTLVIAETFPEDAGIFTCSARNDYGSATSTAQLVVTSANTENCSYESMGESNNDHFQHFPPPPPILETSSLELASKKPSEIQQVNNPELGLSRAALQMQFNAAERETNGVHPSRGVNGLINGKANSNKSLPTPAVLLSPTKEPPPLLAKPKLDPLKLQQLQNQIRLEQEAGARQPPPAPRSAPPSPPFPPPPAFPELAACTPPASPEPMSALASRSAPAMQSSGSFNYARPKQFIAAQNLGPASGHGTPASSPSSSSLPSPMSPTPRQFGRAPVPPFAQPFGAEPEAPWGSSSPSPPPPPPPVFSPTAAFPVPDVFPLPPPPPPLPSPGQASHCSSPATRFGHSQTPAAFLSALLPSQPPPAAVNALGLPKGVTPAGFPKKASRTARIASDEEIQGTKDAVIQDLERKLRFKEDLLNNGQPRLTYEERMARRLLGADSATVFNIQEPEEETANQEYKVSSCEQRLISEIEYRLERSPVDESGDEVQYGDVPVENGMAPFFEMKLKHYKIFEGMPVTFTCRVAGNPKPKIYWFKDGKQISPKSDHYTIQRDLDGTCSLHTTASTLDDDGNYTIMAANPQGRISCTGRLMVQAVNQRGRSPRSPSGHPHVRRPRSRSRDSGDENEPIQERFFRPHFLQAPGDLTVQEGKLCRMDCKVSGLPTPDLSWQLDGKPVRPDSAHKMLVRENGVHSLIIEPVTSRDAGIYTCIATNRAGQNSFSLELVVAAKEAHKPPVFIEKLQNTGVADGYPVRLECRVLGVPPPQIFWKKENESLTHSTDRVSMHQDNHGYICLLIQGATKEDAGWYTVSAKNEAGIVSCTARLDVYTQWHQQSQSTKPKKVRPSASRYAALSDQGLDIKAAFQPEANPSHLTLNTALVESEDL [PALLD] | 0.0775 | 50 °C | 50.5 °C | -0.0539 | 1.21 | 3.53 |
| MSHGPSPRLAESPQLSKGSLLTILGSPSPERMGPADSLPPTPPSGTPSPGPPPALPLPPAPALLADGDWESREELRLRELEEARARAAQMEKTMRRWSDCTANWREKWSKVRAERNRAREEVRQLRQRLDALTKELAGARRERQEAQGECEARGRELARLRGARGVADQTRDGPEPEAEREPVRDVGSERPPGSQELELVESLLKSMPEESEDCWEARSLGAGGPRGSSGRQERSRLPWEDTAATEEEASKLTALRLRLDESQKVLLKEREDKLALSRNIEKLEGELSQWKIKYEELSKTKQEMLKQLSILKEAHQDELGRMSEDLEDELGARSSMDRKMAELRGEMERLQAENAAEWGRRERLETEKLGLERENKKLRAQVGDLEEALARRRRQTASALDCDLRASQAALFEKNKELADLKHVHGKLKKQFQEKVAELAHANRRVEQHEAEVKKLRLRVEELKKELAQAEDELDEAHNQARKLQRSLDEQTEQSENLQVQLEHLQSRLRRQQQNAPLFGKIRSARFGTEEAEDGTSDLDEDEDLQIQVA [CCDC102A] | 0.448 | 50.8 °C | 49.3 °C | 0.0825 | -0.855 | -0.192 |
| MSIFPKISLRPEVENYLKEGFMNKEIVTALGKQEAERKFETLLKHLSHPPSFTTVRVNTHLASVQHVKNLLLDELQKQFNGLSVPILQHPDLQDVLLIPVIGPRKNIKKQQCEAIVGAQCGNAVLRGAHVYAPGIVSASQFMKAGDVISVYSDIKGKCKKGAKEFDGTKVFLGNGISELSRKEIFSGLPELKGMGIRMTEPVYLSPSFDSVLPRYLFLQNLPSALVSHVLNPQPGEKILDLCAAPGGKTTHIAALMHDQGEVIALDKIFNKVEKIKQNALLLGLNSIRAFCFDGTKAVKLDMVEDTEGEPPFLPESFDRILLDAPCSGMGQRPNMACTWSVKEVASYQPLQRKLFTAAVQLLKPEGVLVYSTCTITLAENEEQVAWALTKFPCLQLQPQEPQIGGEGMRGAGLSCEQLKQLQRFDPSAVPLPDTDMDSLREARREDMLRLANKDSIGFFIAKFVKCKST [NSUN6] | 0.29 | 51.8 °C | 51.4 °C | -0.179 | -0.273 | 0.177 |
| MSINLTVDIYIYLLSNARSVCGKQRSKQLYFLFSPKHYWRISHISLQRGFHTNIIRCKWTKSEAHSCSKHCYSPSNHGLHIGILKLSTSAPKGLTKVNICMSRIKSTLNSVSKAVFGNQNEMISRLAQFKPSSQILRKVSDSGWLKQKNIKQAIKSLKKYSDKSAEKSPFPEEKSHIIDKEEDIGKRSLFHYTSSITTKFGDSFYFLSNHINSYFKRKEKMSQQKENEHFRDKSELEDKKVEEGKLRSPDPGILAYKPGSESVHTVDKPTSPSAIPDVLQVSTKQSIANFLSRPTEGVQALVGGYIGGLVPKLKYDSKSQSEEQEEPAKTDQAVSKDRNAEEKKRLSLQREKIIARVSIDNRTRALVQALRRTTDPKLCITRVEELTFHLLEFPEGKGVAVKERIIPYLLRLRQIKDETLQAAVREILALIGYVDPVKGRGIRILSIDGGGTRGVVALQTLRKLVELTQKPVHQLFDYICGVSTGAILAFMLGLFHMPLDECEELYRKLGSDVFSQNVIVGTVKMSWSHAFYDSQTWENILKDRMGSALMIETARNPTCPKVAAVSTIVNRGITPKAFVFRNYGHFPGINSHYLGGCQYKMWQAIRASSAAPGYFAEYALGNDLHQDGGLLLNNPSALAMHECKCLWPDVPLECIVSLGTGRYESDVRNTVTYTSLKTKLSNVINSATDTEEVHIMLDGLLPPDTYFRFNPVMCENIPLDESRNEKLDQLQLEGLKYIERNEQKMKKVAKILSQEKTTLQKINDWIKLKTDMYEGLPFFSKL [PNPLA8] | 0.117 | 53.6 °C | 54 °C | -0.0941 | -0.78 | -0.701 |
| MSISSDEVNFLVYRYLQESGFSHSAFTFGIESHISQSNINGALVPPAALISIIQKGLQYVEAEVSINEDGTLFDGRPIESLSLIDAVMPDVVQTRQQAYRDKLAQQQAAAAAAAAAAASQQGSAKNGENTANGEENGAHTIANNHTDMMEVDGDVEIPPNKAVVLRGHESEVFICAWNPVSDLLASGSGDSTARIWNLSENSTSGSTQLVLRHCIREGGQDVPSNKDVTSLDWNSEGTLLATGSYDGFARIWTKDGNLASTLGQHKGPIFALKWNKKGNFILSAGVDKTTIIWDAHTGEAKQQFPFHSAPALDVDWQSNNTFASCSTDMCIHVCKLGQDRPIKTFQGHTNEVNAIKWDPTGNLLASCSDDMTLKIWSMKQDNCVHDLQAHNKEIYTIKWSPTGPGTNNPNANLMLASASFDSTVRLWDVDRGICIHTLTKHQEPVYSVAFSPDGRYLASGSFDKCVHIWNTQTGALVHSYRGTGGIFEVCWNAAGDKVGASASDGSVCVLDLRK [TBL1XR1] | -0.0567 | 52.2 °C | 53.6 °C | -0.127 | -0.718 | 1.29 |
| MSKEERPGREEILECQVMWEPDSKKNTQMDRFRAAVGAACGLALESYDDLYHWSVESYSDFWAEFWKFSGIVFSRVYDEVVDTSKGIADVPEWFKGSRLNYAENLLRHKENDRVALYIAREGKEEIVKVTFEELRQEVALFAAAMRKMGVKKGDRVVGYLPNSEHAVEAMLAAASIGAIWSSTSPDFGVNGVLDRFSQIQPKLIFSVEAVVYNGKEHNHMEKLQQVVKGLPDLKKVVVIPYVSSRENIDLSKIPNSVFLDDFLATGTSEQAPQLEFEQLPFSHPLFIMFSSGTTGAPKCMVHSAGGTLIQHLKEHLLHGNMTSSDILLCYTTVGWMMWNWMVSLLATGAAMVLYDGSPLVPTPNVLWDLVDRIGITVLVTGAKWLSVLEEKAMKPVETHSLQMLHTILSTGSPLKAQSYEYVYRCIKSSILLGSISGGTDIISCFMGHNFSLPVYKGEIQARNLGMAVEAWNEEGKAVWGESGELVCTKPIPCQPTHFWNDENGNKYRKAYFSKFPGIWAHGDYCRINPKTGGIVMLGRSDGTLNPNGVRFGSSEIYNIVESFEEVEDSLCVPQYNKYREERVILFLKMASGHAFQPDLVKRIRDAIRMGLSARHVPSLILETKGIPYTLNGKKVEVAVKQIIAGKAVEQGGAFSNPETLDLYRDIPELQGF [AACS] | 0.0299 | 48.5 °C | 48 °C | -0.129 | 0.491 | 1.92 |
| MSKLKVIPEKSLTNNSRIVGLLAQLEKINAEPSESDTARYVTSKILHLAQSQEKTRREMTAKGSTGMEILLSTLENTKDLQTTLNILSILVELVSAGGGRRVSFLVTKGGSQILLQLLMNASKESPPHEDLMVQIHSILAKIGPKDKKFGVKARINGALNITLNLVKQNLQNHRLVLPCLQLLRVYSANSVNSVSLGKNGVVELMFKIIGPFSKKNSSLIKVALDTLAALLKSKTNARRAVDRGYVQVLLTIYVDWHRHDNRHRNMLIRKGILQSLKSVTNIKLGRKAFIDANGMKILYNTSQECLAVRTLDPLVNTSSLIMRKCFPKNRLPLPTIKSSFHFQLPVIPVTGPVAQLYSLPPEVDDVVDESDDNDDIDVEAENETENEDDLDQNFKNDDIETDINKLKPQQEPGRTIEDLKMYEHLFPELVDDFQDYDLISKEPKPFVFEGKVRGPIVVPTAGEETSGNSGNLRKVVMKENISSKGDEGEKKSTFMDLAKEDIKDNDRTLQQQPGDQNRTISSVHGLNNDIVKALDRITLQNIPSQTAPGFTAEMKKDCSLPLTVLTCAKACPHMATCGNVLFEGRTVQLGKLCCTGVETEDDEDTESNSSVEQASVEVPDGPTLHDPDLYIEIVKNTKSVPEYSEVAYPDYFGHIPPPFKEPILERPYGVQRTKIAQDIERLIHQSDIIDRVVYDLDNPNYTIPEEGDILKFNSKFESGNLRKVIQIRKNEYDLILNSDINSNHYHQWFYFEVSGMRPGVAYRFNIINCEKSNSQFNYGMQPLMYSVQEALNARPWWIRMGTDICYYKNHFSRSSVAAGGQKGKSYYTITFTVNFPHKDDVCYFAYHYPYTYSTLQMHLQKLESAHNPQQIYFRKDVLCETLSGNSCPLVTITAMPESNYYEHICHFRNRPYVFLSARVHPGETNASWVMKGTLEYLMSNNPTAQSLRESYIFKIVPMLNPDGVINGNHRCSLSGEDLNRQWQSPSPDLHPTIYHAKGLLQYLAAVKRLPLVYCDYHGHSRKKNVFMYGCSIKETVWHTNDNATSCDVVEDTGYRTLPKILSHIAPAFCMSSCSFVVEKSKESTARVVVWREIGVQRSYTMESTLCGCDQGKYKGLQIGTRELEEMGAKFCVGLLRLKRLTSPLEYNLPSSLLDFENDLIESSCKVTSPTTYVLDEDEPRFLEEVDYSAESNDELDIELAENVGDYEPSAQEEVLSDSELSRTYLP [AGTPBP1] | -0.204 | 50.2 °C | 50.3 °C | -0.0731 | -0.000956 | 0.14 |
